The data set in a line: self-splicing fitness, log relative to wild type (ln ratio); higher = more splicing; Tetrahymena group I intron in knt gene, E. coli kanamycin selection, DiMSum; sequences stand for … in CUCUCU…GGAGGGAAAAGUUAUCAGGCAUGCACCUGGUAGCUAGUCUUUAAACCAAUAGAUUGCAUCGGUUUAAAAGGCAAGACCGUCAAAUUGCGGGAAAGGGGUCAACAGCCGUUCAGUACCAAGUCUCAGGGGAAACUUUGAGAUGGCCUUGCAAAGGGUAUGGUAAUAAGCUGACGGACAUGGUCCUAACCACGCAGCCAAGUCCUAAGUCAACAGAUCUUCUGUUGAUAUGGAUGCAGUUCACAGACUAAAUGUCGGUCGGGGAAGAUGUAUUCUUCUCAUAAGAUAUAGUCGGACCUCUCCUUAAUGGGAGCUAGCGGAUGAAGUGAUGCAACACUGGAGCCGCUGGGAACUAAUUUGUAUGCGAAAGUAUAUUGAUUAGUUUUGGAGUACUCGUGGUCG
In a few lines:
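Colonies from six replicate transformations of E. coli BL21(DE3) were pooled and amplicon-sequenced on an Illumina HiSeq 2500. The library placed an intron with all eight P1ex-region nucleotides randomised inside the knt kanamycin-resistance gene on pET-22b(+), and cells grew overnight at 37°C or 30°C on LB agar with or without 25 μg/mL kanamycin (plus 100 μg/mL carbenicillin, 50 μM IPTG, 0.2% rhamnose). Fitness is the DiMSum error-weighted combination of wild-type-normalised replicate fold changes, kanamycin versus none.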

± gives the uncertainty stated by the source.

Regarding CUACAGCAAUAUUACGAGGA, the “self-splicing fitness (ln)” value runs as follows: (30 °C) -3.4 ± 0.2; (37 °C) -3.21 ± 0.27.
The like results for CUACAGCAAUAUUACGAUGA were, in that order, -3.02 ± 0.19 and -2.13 ± 0.14.
Turning to CUACAGCAAUAUUACGAUGU, the “self-splicing fitness (ln)” value (30 °C) is -3.46 ± 0.17 and the “self-splicing fitness (ln)” value (37 °C) is -2.44 ± 0.19.
Take CUACAGCAAUAUUACGCACA: the “self-splicing fitness (ln)” value was -3.12 ± 0.2 (30 °C) and -3.29 ± 0.27 (37 °C).
For CUACAGCAAUAUUACGCCAA, the “self-splicing fitness (ln)” value (30 °C) is -3.32 ± 0.17 and the “self-splicing fitness (ln)” value (37 °C) was -3.04 ± 0.25.
In the same order, the values of CUACAGCAAUAUUACGCCCA are -2.99 ± 0.27 and -1.85 ± 0.23.
The like results for CUACAGCAAUAUUACGCCUA were, in that order, -2.46 ± 0.18 and -3.31 ± 0.28.
Take CUACAGCAAUAUUACGCGCC: the “self-splicing fitness (ln)” value was -3.98 ± 0.35 (30 °C) and -2.3 ± 0.41 (37 °C).
In the same order, the values of CUACAGCAAUAUUACGCGCU are -3.59 ± 0.28 and -1.5 ± 0.23.
Consider CUACAGCAAUAUUACGCGUA, for which the “self-splicing fitness (ln)” value (30 °C) was -3.72 ± 0.31 and the “self-splicing fitness (ln)” value (37 °C) is -2.84 ± 0.3.
On to CUACAGCAAUAUUACGCUUC, for which the “self-splicing fitness (ln)” value (37 °C) was -2.88 ± 0.44.
For the sequence CUACAGCAAUAUUACGGACA, the “self-splicing fitness (ln)” value reads like this: (30 °C) -1.52 ± 0.39; (37 °C) -2.47 ± 0.38.
Consider CUACAGCAAUAUUACGGCAG, for which the “self-splicing fitness (ln)” value is, setting by setting: (30 °C) -1.07 ± 0.063; (37 °C) -0.452 ± 0.088.
Take CUACAGCAAUAUUACGGCGA: the “self-splicing fitness (ln)” value is -2.97 ± 0.39 (30 °C) and -2.91 ± 0.27 (37 °C).
Take CUACAGCAAUAUUACGGUUA: the “self-splicing fitness (ln)” value reads like this: (30 °C) -0.432 ± 0.092; (37 °C) 0.11 ± 0.1.
In the case of CUACAGCAAUAUUACGUAAA, the “self-splicing fitness (ln)” value by setting is: (30 °C) -3.13 ± 0.16; (37 °C) -1.92 ± 0.17.
On to CUACAGCAAUAUUACGUCUA, for which the “self-splicing fitness (ln)” value was -3.21 ± 0.24 (30 °C) and -3.04 ± 0.33 (37 °C).
Regarding CUACAGCAAUAUUACGUCUC, the “self-splicing fitness (ln)” value is -3.38 ± 0.18 (30 °C) and -2.55 ± 0.3 (37 °C).
The like results for CUACAGCAAUAUUACGUGUA were, in that order, -3.12 ± 0.14 and -2.93 ± 0.16.
Consider CUACAGCAAUAUUACGUGUU, for which the “self-splicing fitness (ln)” value runs as follows: (30 °C) -3.08 ± 0.16; (37 °C) -2.94 ± 0.15.
With CUACAGCAAUAUUACGUUCU, the “self-splicing fitness (ln)” value by setting is: (30 °C) -2.56 ± 0.12; (37 °C) -2.42 ± 0.2.
In the same order, the values of CUAGAGCAAUAUUACGAAAC are -3.57 ± 0.31 and -2.41 ± 0.39.
The like results for CUAGAGCAAUAUUACGCAGA were, in that order, -2.47 ± 0.37 and -3.6 ± 0.33.
In the same order, the values of CUAGAGCAAUAUUACGCAGG are -2.12 ± 0.14 and -1.75 ± 0.19.
As for CUAGAGCAAUAUUACGCGGC, the “self-splicing fitness (ln)” value was -0.707 ± 0.19 (30 °C) and 0.756 ± 0.2 (37 °C).
On to CUAGAGCAAUAUUACGGCGG, for which the “self-splicing fitness (ln)” value (30 °C) was -0.275 ± 0.075 and the “self-splicing fitness (ln)” value (37 °C) is 0.501 ± 0.1.
In the same order, the values of CUAGAGCAAUAUUACGGGAG are -0.494 ± 0.052 and -0.0261 ± 0.075.
In the same order, the values of CUAGAGCAAUAUUACGGGAU are -2.94 ± 0.17 and -1.96 ± 0.23.
As to CUAGAGCAAUAUUACGUCAA, the “self-splicing fitness (ln)” value (30 °C) is -3.76 ± 0.24 and the “self-splicing fitness (ln)” value (37 °C) is -2.23 ± 0.21.
In the case of CUAGAGCAAUAUUACGUGAA, the “self-splicing fitness (ln)” value runs as follows: (30 °C) -3.81 ± 0.23; (37 °C) -2.07 ± 0.26.
On to CUAGAGCAAUAUUACGUGGU, for which the “self-splicing fitness (ln)” value was -4.21 ± 0.24 (30 °C) and -3.52 ± 0.33 (37 °C).
For CUAUAGCAAUAUUACGAUCG, the “self-splicing fitness (ln)” value is, setting by setting: (30 °C) -0.256 ± 0.075; (37 °C) 0.439 ± 0.1.
Consider CUAUAGCAAUAUUACGCAAC, for which the “self-splicing fitness (ln)” value (37 °C) is -2.26 ± 0.35.
As for CUAUAGCAAUAUUACGCAGG, the “self-splicing fitness (ln)” value (30 °C) was -2.75 ± 0.34.
With CUAUAGCAAUAUUACGCCAU, the “self-splicing fitness (ln)” value was -2.66 ± 0.39 (30 °C) and -2.45 ± 0.37 (37 °C).
Take CUAUAGCAAUAUUACGCCUG: the “self-splicing fitness (ln)” value by setting is: (30 °C) -0.141 ± 0.15; (37 °C) -0.439 ± 0.14.
With CUAUAGCAAUAUUACGCGCU, the “self-splicing fitness (ln)” value was -4.04 ± 0.36 (30 °C) and -2.61 ± 0.41 (37 °C).
As for CUAUAGCAAUAUUACGCUAC, the “self-splicing fitness (ln)” value by setting is: (30 °C) -3.66 ± 0.17; (37 °C) -2.98 ± 0.2.

The values are drawn from the supplement of paper PMC7877785.
